Test: soluble on expression in E. coli; label from the status in PepcDB or PDB records

Row | Sequence | soluble on expression in E. coli
1 | MSLIESVMTVLVTRPDEQGAELCQLLHQQGIPALHHPLLAISASPQLAALAEDLSSFDIIIAVSQHAVIFSDQFLQHRRICWPNNAIYLAVGQKTAHVFSKACQQSVDYPEISDSEHLLALSMLRDVAGKKVLILRGNGGRELIYSTLVERGATVRYQEAYCRHERPFAAAECVQKWQLAKVDSLVITSSEQLAFFIRQFETSHLPWVQQLTLLVPSQRIATLAHQLGFHRIVVTLSAANRDLVAALMPEKPTGTLSNDQQQEGHHHHHH | soluble
2 | MSLGIIRSILDTDLYKFTTGYAYAKLFPRAYGEFRFIDRNRQGFTEEFAELVRGEIRAMAALSLTRDEKEFLQRELPYLPPIYIDFLDGFRFDPEEVTVSIDAQGHLDIRAQGLLYRVTLWETPILAVISELYYRFIGAKPDWKQVEEVTRSKGELMREHRTTFSIFGMRRRFSLEVEDRVTDILKQYAGESLFGTSNVHLAHKHGLRVSGTHPHEWIQFHGAIYGYKMANYVAMEDWINVYDGDLGTVLTDTYTTDVFMRNFSKKHAMLFTSLRHDSGDPEIFIEKAVRRYEELRVDPKIKYIIFSDSLTPQRAIEIQKLCAGRIKASFGIGTNLTNDVGGGVEPLNIVMKLWKCKMTAKDDWHYCVKLSDVDGKHTGEPEEILLAMNTLGIKPKEGHHHHHH | soluble
3 | MSEKMVAIMKTKPGYGAELVEVDVPKPGPGEVLIKVLATSICGTDLHIYEWNEWAQSRIKPPQIMGHEVAGEVVEIGPGVEGIEVGDYVSVETHIVCGKCYACRRGQYHVCQNTKIFGVDTDGVFAEYAVVPAQNIWKNPKSIPPEYATLQEPLGNAVDTVLAGPISGKSVLITGAGPLGLLGIAVAKASGAYPVIVSEPSDFRRELAKKVGADYVINPFEEDVVKEVMDITDGNGVDVFLEFSGAPKALEQGLQAVTPAGRVSLLGLYPGKVTIDFNNLIIFKALTIYGITGRHLWETWYTVSRLLQSGKLNLDPIITHKYKGFDKYEEAFELMRAGKTGKVVFMLK | soluble
4 | MGSDKIHHHHHHMKEINLASVLVAKRREKGITQDELAAYIGVSKASVSKWETGQSYPDITFLPLLAAYFNISIDELMSYSPQMERSDIAKLYTRLAADFASRPFEDVIAECAALIKKYYSCFPLLVQLVKLYTNHFMLAGTQERQEALLNETVTLCERIQAESGDVQLAKEAVSYQALCSLALQRPQQVLDLLGEGIRPMLPEGMLIAQAYQVMGNIGKAKETLQTELYQYVMVAFQGLLNVLQMATDHFEKAEEAFLRASDLAQIFNMKQLNPNNVILLYALGARMYCANNSHAKAIELLGNYVDTCVGGFFPFELHGDAFFDLIDPWLKDCGAAAPRSEQVIKESMLRDVLMNPAFASLQDDPGYRRLVQKMERFIGR | not soluble
5 | MGSDKIHHHHHHMRRLFTSESVTEGHPDKIADQISDAILDAMLEQDPRSRVAVETLVTTGLVIIAGEVTTRAYVEIPDIARKTILEIGYTRAKYGFDGETCGVLTSIHSQSPDIALGVDKALEVKTGEEVADEFEALGAGDQGIMFGYATNETPEYMPLPITLAHKLAMRLAEVRKNGTLPFLRPDGKTQVTIEYEDDKPVRVDTVLISTQHDPDISQADLREAIIEHVINPVIPEQYRDDKMKILVNPTGRFVLGGPMADTGLTGRKIIVDTYGGWVPHGGGAFSGKDPTKVDRSAHYMARYVAKNVVAAGLADKFLIQLSYAIGVAKPVSIMIDTYGTAKVDEDKLLKVITELFDFRPGAIIKKLNLLRPIYRKTAAYGHFGRNEEEFTWEKLDMVDELKRAFNM | not soluble
6 | MDALEIFKTLFSLVMRFSSYLPSNEEISDMKTTELYAFLYVALFGPKKMKEIAEFLSTTKSNVTNVVDSLEKRGLVVREMDPVDRRTYRVVLTEKGKEIFGEILSNFESLLKSVLEKFSEEDFKVVSEGFNRMVEALSREGR | not soluble
7 | MSLRILGRASSINVRKVLWACAEFEIAFEREDWGSGFKATDSTEFLALNPNAMIPVIQDGDFTLWESNSIIRYLASRYGATAFYPGEAQARARIDQWIDWQASDLNRSWSYAFMSLVRHSPAHQDPQALAAGCAEWSRYMRILDRQLASTGAYVAGSQFTLADIPIGLSVNRWFETPFEHPHLPAVRDYYERLSERPAYHLHGRNGTEGHHHHHH | soluble
8 | MGSDKIHHHHHHMPITQTTSAKKSKPIILMTMGQQDRNQHPYQVMTHKYMQPIVEIAGAIPLLMPTCFGIEDVDRYLDMVDGVYLSGAGSNIDPSLYGQENLTPEKSQDVNRDTVDLAIIAGALKRKLPILGICRGMQELNIALGGTLYQKVYSEPGFDDHREDPQTPNHVQYGPRHPIKTVPGSWLAKLIGDKTMVNSLHGQGICTLGKGLEALAYGEDGLIEAIHGPDYGQFILGVQWHPEWQANDNPDSIKLFQAFGSACRGEVSWQSANDAKLTA | not soluble
9 | MIHVGTCGFCEAREKYFKDFDAVEVQQTFYKVLQEKTLERWRKKAPEEFTFSIKAFQGVTHPSNSPTWRRSNVKPSKNVGLLRPTNEVLHYWRITLKEAKVLGARFILIQLPRSFKEGEESFENAEKFFNAIDRGDFEIGVELRGWSEKGVKRFVREFDVIDVTDPLLRIPLHKGSVNYYRLHGKYEGGKIIYNHSYSDEELKKIRERVLGWNVEESFVFFNNTSMCRDAKRFKLILDLH | soluble
10 | MGSDKIHHHHHHMDNSEEKKLEALGAFEISRKMLALAQKNEKSNIFLNAGRGNPNWIQTLARLAFVRLVQFGVTESKLTINNGIMAGYINTDGIRERLFAFLDPDKNDEDKFLIDAVNYCHTELGLNRDKVVAEWVNGAVANNYPVPDRCLVNTEKIINYFLQELSYKDANLAEQTDLFPTEGGTAAIVYAFHSLAENHLLKKGDKIAINEPIFTPYLRIPELKDYELVEVDLHSYEKNDWEIEPNEIEKLKDPSIKALIVVNPTNPTSKEFDTNALNAIKQAVEKNPKLMIISDEVYGAFVPNFKSIYSVVPYNTMLVYSYSKLFGCTGWRLGVIALNEKNVFDDNIAHLDKVELRQLHKRYSSVVLDPDKMKFIDRLCADSRSIGLYHTAGLSTPQQIMEALFSMTHLLTSTNGGSDDPYIDIARKLVSERYDQLHDAMQAPKDETDTNTHYYSLIDIYRLAEKIYGKEFRDYLTNNFEQVDFLLKLAEKNGVVLVDGVGFGAKPGELRVSQANLPTEDYALIGKQVLELLKEYYEEFKQNN | not soluble
11 | MGSDKIHHHHHHMVTIQNDRFTATINEVGAELTHLVDQASHRDLIWNNDLWPKHAPVLFPAIGRSNEDSYLIDGQRYEMPQHGFVSGETFMIVDQTPTAVTLSLTANAATRVYYPFYFELQVTFTLVATGLNLTFSVQNHGQQDLSYSLGSHPAFNVPFEAGEAFTDYELVLDPAPTDLQQFEIVKTPNPYRSGKELPVTTDKGVIKLNYPMFDAGLIILKAPNLAHLTLQSTKSKHSISLNLDDFDYVTLWTKEGAQAPFLCLEPFNGLPDVAGDLRELATKEGNHHVAVGQSETMAYTITVD | not soluble
12 | MGTSFRQYFKIVPALTEELKREAYRVRHSVYCEDLQFESSRSDGFEIDEYDAHSLHLLIRSINNDTFIGCTRIIRPSSNSNDRRLPFEKTCAQTLDRSIIDPSRLPADKIGEVSRLAVIAAFRRRKGEKNHPINISEEDFSTGPMMRFPYIPLSLYIGTIELARIHDIRVLFMLTEERLASHFSRLGAQLEPIGAPVEHRGLRFPSMVEINSIISNMRPIFRPLYQAIAEDIKAELEKKNH | not soluble
13 | GEADSGDGDSSEYQDGKEFGIGDLVWGKIKGFSWWPAMVVSWKATSKRQAMSGMRWVQWFGDGKFSEVSADKLVALGLFSQHFNLATFNKLVSYRKAMYHALEKARVRAGKTFPSSPGDSLEDQLKPMLEWAHGGFKPTGIEGLKPNNTQP | soluble
14 | MYEGLLIDIDYLLNVVKELKINFDKKIKTLNLLIERNIPIVLYTENNKEYVDTIMKYLKIKEPAIIVEGAQIYSPFDLSYEAVFPLSINTVCKLGNWAMDRKMDMSISTDKKVIDYSEWLKELRQVNYKNAGDKLPSAVKVDICMKNDDKRIELLNFIGKNNLECYAHMYLNHVACINSIVDKGNTLKYLANKKKWDIKKFAMIGDYSKDTSIFDEVGF | not soluble
15 | MNYPVNPDLMPALMAVFQHVRTRIQSELDCQRLDLTPPDVHVLKLIDEQRGLNLQDLGRQMCRDKALITRKIRELEGRNLVRRERNPSDQRSFQLFLTDEGLAIHQHAEAIMSRVHDELFAPLTPVEQATLVHLLDQCLAAQPLEDI | soluble
16 | MAHHHHHHMVCRSKRASSFRHRVVHACVTEQRVLPSCRIHVVLRNFSADFSSLSPRCHYTSAGLLLHPSPLPPPSSTSSRLSTSIPPFRFTRAESSAAVFSMSIGTDYLSAMLNYNGCLQERILRRLLIIENETDSLLALRCALVPLQTPTRKRKRHTEPVAAQGTSFNVDVDTTRHRWSTELCEALNDEAAKANCIASLCPPAKERWCAVAAALRRAGHPSFTPYELFTKYKEMHSDSRPFALSEARFVCQYVQEHGGDWQGLCQALRQRLGHVRSPFQVAQQYRQRLRCAFVENRLTSSQLLTLLADLPASPQDRDFAALSVEAQRFTSHKTLQVSPLYLKRELEPLDFAARVPTCHHLYWKLVNLLCNFTLSHPNRLHAFQHRMPFCYQQRSLADLARSLQCEAAELQERVVHALLRLSRPPEALNYEECSKKLFGTVCGAQLIYQISEKLHEKDI | soluble
17 | MKNKADNKKRNFLTHSEIESLLKAANTGPHAARNYCLTLLCFIHGFRASEICRLRISDIDLKAKCIYIHRLKKGFSTTHPLLNKEVQALKNWLSIRTSYPHAESEWVFLSRKGNPLSRQQFYHIISTSGGNAGLSLEIHPHMLRHSCGFALANMGIDTRLIQDYLGHRNIRHTVWYTASNAGRFYGIWDRARGRQRHAVL | soluble
18 | MPIEIERRFLIGNDNWRQYADEPLLLRQGYLSVEKERTVRVRIAGKQAWLTLKGYISEISRSEFEYEIPLADAEKMMETMCPFKMEKWRYPVRWGGSLFEIDVFLGDNAPLVVAEIELPDENADFDRPDWLGREITADGMFTNAYLSRHPFSSWKNAV | not soluble
19 | MRTAEIREKFLSFFEGKGHLRLPSFSLIPEDDPSLLFTSAGMAPLKPYFLGAKPIFGGREWRRVTTCQECLRVGDIENVGRTSRHNTYFEMLGNFSFGDYFKKEAILWAWEFLTEHLKLDPGRLWVTVFEDDDEAYEIWRDLVGVPEERIGRFGEDENYWPGGAITHGPNGPSGPCSEIFYDRGPAYGTPDETGPNTGSGDRFVEIWNLVFTQYDRQGPIPGPGILKPLPQKNIDTGMGLYRVAAILQDVEDFYRTDTFFPIIQEVARMSGRPYEGKTSVSHRVIADHVRAVVAALSDGATFSNTGRGYVIRRLLRRALRHGYLLGLSDPFLHRLAPLVAELLGDFYPEMRENLPAVEKQIRLEEERFLETLEGGLKRLDALLSGLKPGEVLPGKEAFRLYDTYGFPLDLTVEIAAERGYGVDTEGFQKAMEEQQSRSRAAMAFEREIFKKGAQVLEELYAERGATEFLGYNALEAEAEVLALLAGDQSLLEAGPGTEVQVVLDKTPFYAEGGGQIGDFGLLEWPGGRARVETTRKTERGIFLHKARVEEGVLRVGERVRAVVDPRRRDTERNHTATHLLHAALRAVLGPHVRQAGSLVAPDRLRFDFTHPEPLKPEELERVELLVNRWIMADFPVTWRYMPLEEARKEGAMALFGEKYGEVVRVVRVEGSPLEGLESKELCGGCHVRRTGEIGAFLIRSEEAVSAGVRRIEAVTGEEAIRFARGSLNRLKALAERLEVGEAALEERLEKLLAELKEKEREVESLKARLVQAALGGGGGASLEEKGGLRWTVAELPGLDAKALRQAADDLVARGADVALVLSGGQAVLKLSPKAQGMGLEAGALFRALAEKAGGRGGGKGALAQGGGLDPRKAREALPGLLP | soluble
20 | MFSSSKLVNAVAQRLLDTIEQGRWVAGQMLPGQRELAEQMEISRPSLREAIMVLETLGVVRSLPGKGVMVLERSEPLREVAAPGEATMEDVLQLRYALEPFIVGIVAQSAGAAEISELRLLLLDLREAVEDGDPQALVEAYTAFHRRLVKLTSNPIFLSVSEQIGSALERSDNLVRRQPEYAEEILQEHDAILRAIRQHDSERASQAMRQHILNEGARLNIDLRLPQV | not soluble

Source: the DeepSol protein solubility set
